For 2 substances, percent loss of BiFC between VC-AbdA and VN-Exd and fold weaker BiFC signal than VC-AbdA/VN-Exd results are on record in paper PMC3041725.

The target in assay [1] is VN-Exd fusion protein, expressed in Drosophila embryos (Drosophila melanogaster) (UniProt P40427). Nature of the assay: split reporter (BiFC, NanoBiT); competition against split Venus BiFC in living Drosophila embryos: an unfused ('cold') protein co-expressed with the two fusion proteins.
For assay [2], the target named is VC-Exd fusion protein, expressed in Drosophila embryos (Drosophila melanogaster) (UniProt P40427). Nature of the assay: split reporter (BiFC, NanoBiT); split Venus (VN 1-173, VC 155-238) BiFC in living Drosophila embryos; fusion proteins expressed by UAS/Gal4 (abdA-Gal4, en-Gal4, btl-Gal4 and others); embryos kept at 4°C for 28 h before confocal imaging.
Sequence of VC-Exd fusion protein, expressed in Drosophila embryos (Drosophila melanogaster) (P40427 whole entry, the tested form may be a part): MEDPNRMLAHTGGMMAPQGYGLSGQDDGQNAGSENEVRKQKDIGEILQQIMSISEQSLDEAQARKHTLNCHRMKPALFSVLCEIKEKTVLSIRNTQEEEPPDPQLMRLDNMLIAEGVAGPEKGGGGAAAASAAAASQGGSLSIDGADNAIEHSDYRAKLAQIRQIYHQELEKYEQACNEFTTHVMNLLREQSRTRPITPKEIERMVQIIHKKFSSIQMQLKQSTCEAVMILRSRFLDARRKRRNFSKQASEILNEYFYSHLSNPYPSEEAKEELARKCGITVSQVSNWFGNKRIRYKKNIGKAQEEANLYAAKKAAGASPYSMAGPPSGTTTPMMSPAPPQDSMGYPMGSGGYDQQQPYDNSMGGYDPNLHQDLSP

Sequence of VN-Exd fusion protein, expressed in Drosophila embryos (Drosophila melanogaster) (P40427 whole entry, the tested form may be a part): as above
Sequence of VN-AbdA fusion protein, expressed in Drosophila embryos, P29555 1-590 (natural protein; other documents disagree on this pair) (P29555 whole entry, the tested form may be a part): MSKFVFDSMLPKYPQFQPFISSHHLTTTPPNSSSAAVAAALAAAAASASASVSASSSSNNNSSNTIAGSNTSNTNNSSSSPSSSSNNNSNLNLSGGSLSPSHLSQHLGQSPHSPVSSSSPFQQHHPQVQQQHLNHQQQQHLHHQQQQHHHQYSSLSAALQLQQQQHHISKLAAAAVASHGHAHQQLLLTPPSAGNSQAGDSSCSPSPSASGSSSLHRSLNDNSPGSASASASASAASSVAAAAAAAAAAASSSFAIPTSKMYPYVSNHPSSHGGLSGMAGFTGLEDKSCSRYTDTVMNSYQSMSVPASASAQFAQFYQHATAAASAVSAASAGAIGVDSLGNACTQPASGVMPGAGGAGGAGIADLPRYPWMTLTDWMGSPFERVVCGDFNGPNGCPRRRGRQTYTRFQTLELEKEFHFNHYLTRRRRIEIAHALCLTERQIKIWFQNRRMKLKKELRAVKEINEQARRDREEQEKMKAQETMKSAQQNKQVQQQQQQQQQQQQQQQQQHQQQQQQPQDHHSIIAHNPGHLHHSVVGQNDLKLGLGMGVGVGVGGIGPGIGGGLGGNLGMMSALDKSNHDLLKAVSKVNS
Sequence of AbdominalA (AbdA), unfused parental wild type protein, expressed in Drosophila embryos, P29555 1-590 (natural protein; other documents disagree on this pair) (P29555 whole entry, the tested form may be a part): as above

In assay [1], “AbdominalA (AbdA), unfused parental wild type protein, expressed in Drosophila embryos, P29555 1-590 (natural protein; other documents disagree on this pair)” showed a percent loss of BiFC between VC-AbdA and VN-Exd of 80%.
For “VN-AbdA fusion protein, expressed in Drosophila embryos, P29555 1-590 (natural protein; other documents disagree on this pair)”, the fold weaker BiFC signal than VC-AbdA/VN-Exd in assay [2] was 5 fold.
